Measurements published in patent EP1132405A1 (Takeda Chemical Industries, Ltd., dated 2001).
Ends that are not written are not given here.

Biological target: rat cerebellum-derived G protein-coupled receptor protein rOT7T022L (rat, UniProt Q9EP86 1-432)
Test: cell-based or functional assay

Chain of rat cerebellum-derived G protein-coupled receptor protein rOT7T022L (Q9EP86 whole entry, form in doubt): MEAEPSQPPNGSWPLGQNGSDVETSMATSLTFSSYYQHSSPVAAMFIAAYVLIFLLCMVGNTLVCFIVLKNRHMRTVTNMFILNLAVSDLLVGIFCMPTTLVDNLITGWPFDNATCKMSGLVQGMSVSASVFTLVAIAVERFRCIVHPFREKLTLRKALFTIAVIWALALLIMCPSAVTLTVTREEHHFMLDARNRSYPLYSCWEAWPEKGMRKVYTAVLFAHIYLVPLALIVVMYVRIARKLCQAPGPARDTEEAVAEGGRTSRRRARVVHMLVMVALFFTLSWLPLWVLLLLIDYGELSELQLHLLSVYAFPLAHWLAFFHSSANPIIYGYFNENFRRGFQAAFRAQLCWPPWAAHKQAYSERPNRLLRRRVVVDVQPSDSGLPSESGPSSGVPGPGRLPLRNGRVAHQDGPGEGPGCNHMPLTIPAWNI

- IC50 of cAMP production suppression (forskolin-stimulated, cAMP EIA): 0.5 nM
Binder: MPHSFANLPLRF-NH2 [peptide MPHSFANLPLRFamide (Met-Pro-His-Ser-Phe-Ala-Asn-Leu-Pro-Leu-Arg-Phe-NH2)]
